PMC10445733
Blank lines part the entries; values can stand above or below the substance they belong to.

Assays:
Experiment in all cases: GST pulldown (co-precipitation), anti-HA western blot band quantification
[1] = target: ESCRT-I complex: GST–TSG101 (m6) + Myc–VPS28 + HA–VPS37C (m11); settings: input 1%, value = UMAD1 pulldown band intensity / input band intensity, parent: 2.1
[2] = target: ESCRT-I complex: GST–TSG101 (m6) + Myc–VPS28 + HA–VPS37B (m10); settings: input 1%, value = UMAD1 pulldown band intensity / input band intensity, parent: 2.4
[3] = target: ESCRT-I complex: GST–TSG101 (m6) + Myc–VPS28 + HA–VPS37D (m12); settings: input 1%, value = UMAD1 pulldown band intensity / input band intensity, parent: 0.3

response ([1]; 293T cells co-transfected with GST–TSG101, Myc–VPS28, HA–VPS37C and HA–UMAD1 M4): 0.4 | response ([2]; 293T cells co-transfected with GST–TSG101, Myc–VPS28, HA–VPS37B and HA–UMAD1 M4): 0.2 | response ([3]; 293T cells co-transfected with GST–TSG101, Myc–VPS28, HA–VPS37D and HA–UMAD1 M4): 0
Substance: HA–UMAD1 (from UniProt C9J7I0) E130A

response ([1]; 293T cells co-transfected with GST–TSG101, Myc–VPS28, HA–VPS37C and HA–UMAD1 M3): 1.2 | response ([2]; 293T cells co-transfected with GST–TSG101, Myc–VPS28, HA–VPS37B and HA–UMAD1 M3): 1.2 | response ([3]; 293T cells co-transfected with GST–TSG101, Myc–VPS28, HA–VPS37D and HA–UMAD1 M3): 0
Substance: HA–UMAD1 (from UniProt C9J7I0) F127A

response ([1]; 293T cells co-transfected with GST–TSG101, Myc–VPS28, HA–VPS37C and HA–UMAD1 M1): 0 | response ([2]; 293T cells co-transfected with GST–TSG101, Myc–VPS28, HA–VPS37B and HA–UMAD1 M1): 0 | response ([3]; 293T cells co-transfected with GST–TSG101, Myc–VPS28, HA–VPS37D and HA–UMAD1 M1): 0
Substance: HA–UMAD1 (from UniProt C9J7I0) V89A; P90A; F91A

response ([1]; 293T cells co-transfected with GST–TSG101, Myc–VPS28, HA–VPS37C and HA–UMAD1 M2): 0.6 | response ([2]; 293T cells co-transfected with GST–TSG101, Myc–VPS28, HA–VPS37B and HA–UMAD1 M2): 0.4 | response ([3]; 293T cells co-transfected with GST–TSG101, Myc–VPS28, HA–VPS37D and HA–UMAD1 M2): 0
Substance: HA–UMAD1 (from UniProt C9J7I0) Y125A
